T1: monkey Fc-PD-1 protein (monkey, UniProt Q15116 25-170 (human entry))
T1 construct: not shown: Fc part not described
T1 chain: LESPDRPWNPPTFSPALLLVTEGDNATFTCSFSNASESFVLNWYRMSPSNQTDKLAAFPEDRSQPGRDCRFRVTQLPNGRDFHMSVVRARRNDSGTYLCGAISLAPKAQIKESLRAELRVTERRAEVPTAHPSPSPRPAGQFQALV

T2: PD-1 M14
T2 PD-1 mutant: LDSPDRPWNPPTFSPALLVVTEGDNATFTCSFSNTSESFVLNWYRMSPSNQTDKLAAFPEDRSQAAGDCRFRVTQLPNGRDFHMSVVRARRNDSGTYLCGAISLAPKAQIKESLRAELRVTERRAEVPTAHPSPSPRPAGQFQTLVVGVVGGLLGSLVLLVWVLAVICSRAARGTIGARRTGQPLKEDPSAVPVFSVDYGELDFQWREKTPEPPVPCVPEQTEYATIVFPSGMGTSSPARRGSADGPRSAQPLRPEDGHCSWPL

B1: A35796 (Fab, V domains shown)
VH: QMQLVQSGPEVKKPGTSVKVSCKASGFTFTNYWIGWVRQAPGQALEWMGDIYPGGGYTNYNEKFKGRVTITADKSTSTAYMELSSLRSEDTAVYYCARGYDFVLDRWGQGTTVTVSS
VL: DVVMTQSPAFLSVTPGEKVTITCKSSQSLFNSETQKNYLAWYQQKPGQPPKLLIYWASTRESGVPSRFSGSGSGTDFTLTISSLQPEDFATYYCKQSYTLRTFGGGTKLEIK
notes: humanized Fab clone of 137F2; also called humanized antibody A35796
B2: A35797 (Fab, V domains shown)
VH: EVQLVQSGAEVKKHGESLKISCKGSGYSFTNYWIGWVRQATGQGLEWMGDIYPGGGYTNYNEKFKGRVTITADKSTSTAYMELSSLRSEDTAVYYCARGYDFVLDRWGQGTTVTVSS
VL: B1 VL with V2I, V3Q, A9S, F10S, V13A, T14S, P15V, E17D, K18R
notes: humanized Fab clone of 137F2; also called humanized antibody A35797
B3: A35795 (Fab, V domains shown)
VH: B1 VH with M2V, P9A, T16A, F27Y, A44G
VL: B1 VL with P49A, K51R
notes: humanized Fab clone of 137F2; also called humanized antibody A35795
B4: A35818 (Fab, V domains shown)
VH: B1 VH
VL: B1 VL with P49A, K51R, L79F, Q85E, P86A, F89A
notes: humanized Fab clone of 137F2; also called humanized antibody A35818
B5: A35799 (Fab, V domains shown)
VH: B1 VH with P9A, P14T, T16S, F27Y, A40M, Q43K, A44G
VL: B1 VL
notes: humanized Fab clone of 137F2; also called humanized antibody A35799
B6: A35793 (Fab, V domains shown)
VH: B1 VH
VL: B1 VL with L79F, Q85E, P86A, F89A
notes: humanized Fab clone of 137F2; also called humanized antibody A35793
B7: A35805 (Fab, V domains shown)
VH: B1 VH with M2V, P9S, V11L, T16A, F27Y, Q43K, A44G
VL: B1 VL with L79F, Q85E, P86A, F89A
notes: humanized Fab clone of 137F2; also called humanized antibody A35805
B8: A35775 (Fab, V domains shown)
VH: EVQLVQSGAEVKKPGESLKISCKGSGYSFTNFYIHWVRQAPGQRLEWMGSIYPNYGDTAYNQKFKDRFVFSLDTSVSTAYLQISSLKAEDTAVYYCARGYSYAMDYWGQGTTVTVSS
VL: DIQMTQSPSSVSASVGDRVTITCSASQGISGDLNWYQQKPGQAPRLLIYHTSSLHSGVPSRFSGSGSGTDFTLTISSLQPEDFATYYCQYYSKDLLTFGGGTKLEIK
notes: humanized Fab clone of 135C12; also called humanized antibody A35775
B9: A35789 (Fab, V domains shown)
VH: EVQLVQSGAEVKKPGESLKISCKGSGYSFTNFYIHWVRQMPGKGLEWMGSIYPNYGDTAYNQKFKDRVTITADKSTSTAYMELSSLRSEDTAVYYCARGYSYAMDYWGQGTTVTVSS
VL: B8 VL with V58I, S60A, S77R, Q79E, T85V
notes: humanized Fab clone of 135C12; also called humanized antibody A35789
B10: A35774 (Fab, V domains shown)
VH: B8 VH
VL: B8 VL with Q42K, R45K
notes: humanized Fab clone of 135C12; also called humanized antibody A35774
B11: A36443 (Fab, V domains shown)
VH: B9 VH with E16A, S17T, L18V, G24V, S28T, M40A, P41R, K43Q, G44R, M48I
VL: B8 VL with D70E, S77R, Q79E, T85V
notes: humanized Fab clone of 135C12; also called humanized antibody A36443
B12: A35777 (Fab, V domains shown)
VH: B9 VH with E16A, S17T, L18V, G24V, S28T, M40A
VL: B8 VL with S10T, V11L
notes: humanized Fab clone of 135C12; also called humanized antibody A35777
B13: A36437 (Fab, V domains shown)
VH: B8 VH with A40M, Q43K, R44G
VL: B8 VL with S10T, V11L, V58I, S60A, T85V
notes: humanized Fab clone of 135C12; also called humanized antibody A36437
B14: A35783 (Fab, V domains shown)
VH: B8 VH with P41R, M48I
VL: B8 VL with V11L, Q42K, A43T, R45K
notes: humanized Fab clone of 135C12; also called humanized antibody A35783
B15: A36448 (Fab, V domains shown)
VH: B8 VH with A40M, Q43K, R44G
VL: B8 VL with S10T, V11L, Q42K, A43T, R45K
notes: humanized Fab clone of 135C12; also called humanized antibody A36448
B16: 137F2 (antibody, V domains shown)
VH: QVQLQQPGAELVRPGTSVKMSCKAAGYTFTNYWIGWIKQRPGHGLEWIGDIYPGGGYTNYNEKFKGKATLTADTSSSTAYMQVSSLTSEDTGIYYCARGYDFVLDRWGQGTSVTVSS
VL: DIVMSQSPSSLAVSTGEKVTMTCKSSQSLFNSETQKNYLAWYQQKPGQPPKLLIFWASTRESGVPDRFLGSGSGTDFTLTISSVQAEDLAVYYCKQSYTLRTFGGGTKLEIK
notes: also called mouse 137F2A11

Residue numbers refer to the chain shown, from its start.

T3 sequence (Q15116 25-170): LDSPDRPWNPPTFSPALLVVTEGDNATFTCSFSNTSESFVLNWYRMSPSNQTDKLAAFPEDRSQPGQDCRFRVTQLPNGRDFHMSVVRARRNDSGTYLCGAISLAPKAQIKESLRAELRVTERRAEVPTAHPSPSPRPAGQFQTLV

In the first experiment the target is T1, monkey Fc-PD-1 protein. The experiment can be described thus: Biacore, Fab, monkey Fc-PD-1. (SPR reads the build-up and loss of mass on a sensor chip optically.)
As for B1, binding was characterised by a dissociation constant (Kd) of 1.03 nM, the koff turned out to be 9.81e-05 s⁻¹ and the kon worked out at 95300 M⁻¹ s⁻¹.
In the same order, the values of B2 are 1.13 nM, 0.000106 s⁻¹ and 93700 M⁻¹ s⁻¹.
On to B3, for which the affinity, expressed as Kd, was 1.64 nM; the koff came out at 0.000152 s⁻¹; the kon came to 92500 M⁻¹ s⁻¹.
Molecule B4 came in with a Kd of 1.27 nM, a koff of 0.000116 s⁻¹ and a kon of 91400 M⁻¹ s⁻¹.
Molecule B5 displayed a Kd of 1.88 nM, a koff of 0.000169 s⁻¹ and a kon of 89700 M⁻¹ s⁻¹.
Consider B6, for which the Kd is 1.13 nM, the koff was 0.000105 s⁻¹ and the kon amounted to 93200 M⁻¹ s⁻¹.
The molecule B7 showed a Kd of 1.08 nM, a koff of 9.49e-05 s⁻¹ and a kon of 88200 M⁻¹ s⁻¹.

In the next experiment the target is T1, monkey Fc-PD-1 protein. The experiment can be described thus: Biacore, Fab, monkey Fc-PD-1. This is another data set of the same source.
B8 displayed a Kd of 5.73 nM, a koff of 0.000347 s⁻¹ and a kon of 60500 M⁻¹ s⁻¹.
The molecule B9 had a Kd of 6.19 nM, a koff of 0.000413 s⁻¹ and a kon of 66700 M⁻¹ s⁻¹.
In the same order, the values of B10 are 2.79 nM, 0.000194 s⁻¹ and 69300 M⁻¹ s⁻¹.
B11 came in with a Kd of 6.16 nM, a koff of 0.000585 s⁻¹ and a kon of 94900 M⁻¹ s⁻¹.
For B12 the same measures were 5 nM, 0.000575 s⁻¹ and 115000 M⁻¹ s⁻¹.
The molecule B13 came in with a Kd of 6.07 nM, a koff of 0.000368 s⁻¹ and an association rate constant (kon) of 60700 M⁻¹ s⁻¹.
The molecule B14 yielded a Kd of 1.9 nM, a koff of 0.0008 s⁻¹ and a kon of 421000 M⁻¹ s⁻¹.

A further experiment has as its target T3, recombinant human Fc-PD-1 protein (human, UniProt Q15116 25-170).
T3 construct: may be the same protein as the PD-1 Fc fusion of the Luminex assays; also called recombinant human PD-1 in an Fc fusion construct; not shown: Fc part not described
In words: Biacore, Fab, human Fc-PD-1.
For B1, the Kd stood at 1.18 nM, the koff amounted to 0.000123 s⁻¹ and the kon amounted to 104000 M⁻¹ s⁻¹.
In the case of B2, the Kd is 0.802 nM, the koff is 8.02e-05 s⁻¹ and the kon was determined as 100000 M⁻¹ s⁻¹.
Take B3: the Kd was determined as 0.797 nM, the koff came out at 8.24e-05 s⁻¹ and the kon amounted to 103000 M⁻¹ s⁻¹.
Regarding B4, the Kd was determined as 1.06 nM, the koff worked out at 0.000104 s⁻¹ and the on-rate (kon) came out at 98800 M⁻¹ s⁻¹.
As for B5, the equilibrium dissociation constant (Kd) was found to be 0.734 nM, the koff was found to be 7.43e-05 s⁻¹ and the kon stood at 101000 M⁻¹ s⁻¹.
For B6 the same measures were 0.912 nM, 9.49e-05 s⁻¹ and 104000 M⁻¹ s⁻¹.
With B7, the Kd came to 0.937 nM, the koff is 8.78e-05 s⁻¹ and the kon amounted to 93700 M⁻¹ s⁻¹.

The next experiment concerns the target T3, recombinant human Fc-PD-1 protein. In words: Biacore, Fab, human Fc-PD-1. The source holds these as a separate data set.
For B8, the Kd stood at 2.54 nM, the koff is 0.000203 s⁻¹ and the kon was 80200 M⁻¹ s⁻¹.
For B9, the Kd came to 4.17 nM, the koff turned out to be 0.000293 s⁻¹ and the kon was determined as 70100 M⁻¹ s⁻¹.
B10: the dissociation constant (Kd) came to 2.61 nM, the koff is 0.000211 s⁻¹ and the kon was 80900 M⁻¹ s⁻¹.
B11: the Kd came to 3.02 nM, the koff worked out at 0.000215 s⁻¹ and the kon was found to be 71200 M⁻¹ s⁻¹.
Take B12: the Kd amounted to 5.13 nM, the koff came to 0.000352 s⁻¹ and the on-rate constant (kon) turned out to be 68600 M⁻¹ s⁻¹.
In the same order, the values of B13 are 4.46 nM, 0.000317 s⁻¹ and 71000 M⁻¹ s⁻¹.
As for B15, the Kd amounted to 4.31 nM, the koff stood at 0.000386 s⁻¹ and the kon was determined as 89600 M⁻¹ s⁻¹.
B14: the Kd amounted to 2.55 nM, the koff was found to be 0.000196 s⁻¹ and the kon was 76800 M⁻¹ s⁻¹.

The next experiment has as its target T1, monkey Fc-PD-1 protein. The experiment can be described thus: Biacore, monkey Fc-PD-1.
For B16, the Kd is 2.22 nM, the koff came to 0.000305 s⁻¹ and the kon was found to be 138000 M⁻¹ s⁻¹.

A further experiment concerns the target T2, PD-1 M14. The experiment can be described thus: flow cytometry, HeLa cells transiently transfected with PD-1 M14, PE-labeled anti-mouse IgG secondary Ab. (A flow cytometer gives signals particle by particle.)
On to B16, for which the binding result was “binds”.

Usually Kd stands for the free concentration of one partner at which half of the binding sites on the other are occupied at equilibrium, for simple one-to-one binding. By koff is commonly meant the rate constant with which the complex falls apart. In general, kon refers to a measure of how fast the partners come together.
